{"source": "patent EP4725970A1", "about": "(Fortvita Biologics Inc., dated 2026)", "key": {"[1]": {"biological_target": "T1, cynomolgus monkey GPRC5D (full-length, on cells) (cynomolgus monkey, UniProt A0A2K5W6I7 1-300)", "T1 construct": "also called cynoGPRC5D; GS-CHO-cynoGPRC5D", "T1 sequence (A0A2K5W6I7 entry or part of it limits assumed, form in doubt)": "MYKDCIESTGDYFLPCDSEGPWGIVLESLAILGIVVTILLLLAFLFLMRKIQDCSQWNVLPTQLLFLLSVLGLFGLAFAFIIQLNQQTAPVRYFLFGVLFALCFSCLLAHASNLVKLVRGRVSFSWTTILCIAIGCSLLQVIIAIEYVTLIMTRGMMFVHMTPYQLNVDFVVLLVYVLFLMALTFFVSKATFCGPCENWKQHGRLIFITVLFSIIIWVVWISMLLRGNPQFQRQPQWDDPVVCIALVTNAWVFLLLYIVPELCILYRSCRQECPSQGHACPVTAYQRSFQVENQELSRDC", "experiment": "flow cytometry, GS-CHO-cynoGPRC5D cells"}, "cyno CD3E&G-His/Free": {"biological_target": "T2, cyno CD3E&G-His/Free (cynomolgus monkey, UniProt Q95LI5 22-117; Q95LI7 23-113)", "T2 construct": "Bought recombinant heterodimer; also called monkey CD3 E&G", "T2 sequence (looked up) 1": "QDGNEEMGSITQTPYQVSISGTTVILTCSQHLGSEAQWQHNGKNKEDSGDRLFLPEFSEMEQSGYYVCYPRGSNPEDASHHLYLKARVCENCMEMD", "T2 sequence (looked up) 2": "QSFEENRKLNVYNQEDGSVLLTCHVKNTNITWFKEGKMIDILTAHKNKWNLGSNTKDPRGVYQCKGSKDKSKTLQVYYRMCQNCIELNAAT", "experiment": "BLI (Octet), 1:1 fit"}, "human CD3E&G-His/Free": {"biological_target": "T3, human CD3E&G-His/Free (human, UniProt P07766 23-126; P09693 23-116)", "T3 construct": "Bought recombinant heterodimer; 'His/Free' as printed (one chain His-tagged); also called human CD3 E&G heterodimer", "T3 sequence (P07766 23-126, chain 1 of 2)": "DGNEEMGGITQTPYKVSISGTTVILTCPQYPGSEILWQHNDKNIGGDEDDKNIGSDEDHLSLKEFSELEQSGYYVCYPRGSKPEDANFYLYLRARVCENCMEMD", "T3 sequence (P09693 23-116, chain 2 of 2)": "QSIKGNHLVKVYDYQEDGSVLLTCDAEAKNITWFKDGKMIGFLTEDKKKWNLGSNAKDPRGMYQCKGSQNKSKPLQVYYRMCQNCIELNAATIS", "experiment": "BLI (Octet), 1:1 fit"}, "[2]": {"biological_target": "T4, human GPRC5D (full-length, on cells) (human, UniProt Q9NZD1 1-345)", "T4 sequence (Q9NZD1 whole entry)": "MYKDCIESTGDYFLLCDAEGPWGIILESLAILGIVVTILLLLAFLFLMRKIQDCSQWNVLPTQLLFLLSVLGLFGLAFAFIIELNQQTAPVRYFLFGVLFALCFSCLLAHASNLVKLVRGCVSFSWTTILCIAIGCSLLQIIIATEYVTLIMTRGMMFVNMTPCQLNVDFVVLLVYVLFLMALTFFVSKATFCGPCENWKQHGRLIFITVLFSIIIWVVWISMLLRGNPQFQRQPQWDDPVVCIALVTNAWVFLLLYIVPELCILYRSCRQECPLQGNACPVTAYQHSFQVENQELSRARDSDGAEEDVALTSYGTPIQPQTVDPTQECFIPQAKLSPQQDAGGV", "experiment": "cell-based or functional assay"}, "BCMA-R39A (on cells)": {"biological_target": "T5, BCMA-R39A (on cells) (human, UniProt Q02223 1-184)", "T5 construct": "also called hBCMA-R39A; 293T-hBCMA-R39A", "T5 chain": "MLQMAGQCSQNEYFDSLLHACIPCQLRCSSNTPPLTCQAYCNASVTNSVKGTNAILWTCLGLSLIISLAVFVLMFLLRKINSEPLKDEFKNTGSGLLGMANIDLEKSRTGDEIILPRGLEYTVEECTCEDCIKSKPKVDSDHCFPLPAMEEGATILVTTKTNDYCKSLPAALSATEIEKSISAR", "experiment": "flow cytometry on 293T and GS CHO cells (FIG. 2I, 2J)"}, "BCMA-R27P (on cells)": {"biological_target": "T6, BCMA-R27P (on cells) (human, UniProt Q02223 1-184)", "T6 construct": "also called hBCMA-R27P; 293T-hBCMA-R27P", "T6 chain": "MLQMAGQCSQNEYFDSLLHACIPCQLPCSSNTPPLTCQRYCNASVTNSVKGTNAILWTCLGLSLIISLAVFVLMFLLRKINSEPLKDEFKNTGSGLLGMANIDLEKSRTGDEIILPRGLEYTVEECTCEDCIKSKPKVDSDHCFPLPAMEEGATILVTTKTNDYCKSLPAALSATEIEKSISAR", "experiment": "flow cytometry on 293T and GS CHO cells (FIG. 2I, 2J)"}, "[3]": {"biological_target": "T7, human CD3 (on Jurkat cells and human T cells) (human, UniProt P07766 23-207)", "T7 construct": "whole, on cells; the other chains of the complex on the cells are not described; also called CD3E", "T7 sequence (P07766 23-207)": "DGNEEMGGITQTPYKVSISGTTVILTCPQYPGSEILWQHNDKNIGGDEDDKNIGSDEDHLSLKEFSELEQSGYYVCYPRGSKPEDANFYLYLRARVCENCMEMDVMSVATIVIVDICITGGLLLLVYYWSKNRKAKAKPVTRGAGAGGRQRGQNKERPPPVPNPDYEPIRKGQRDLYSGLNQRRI", "experiment": "flow cytometry, Jurkat cells"}, "[4]": {"biological_target": "T8, human BCMA (full-length, on cells) (human, UniProt Q02223 1-184)", "T8 sequence": "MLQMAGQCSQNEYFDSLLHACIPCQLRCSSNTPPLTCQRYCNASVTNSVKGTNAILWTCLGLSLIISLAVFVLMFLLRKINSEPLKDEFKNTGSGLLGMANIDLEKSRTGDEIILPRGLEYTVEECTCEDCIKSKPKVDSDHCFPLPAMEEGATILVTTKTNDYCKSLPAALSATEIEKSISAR", "experiment": "cell-based or functional assay"}, "[5]": {"biological_target": "T7, human CD3 (on Jurkat cells and human T …)", "experiment": "flow cytometry, human CD4 T cells"}, "[6]": {"biological_target": "T8, human BCMA (full-length, on cells)", "experiment": "cell-based or functional assay", "remark": "listed apart in the source"}, "[7]": {"biological_target": "T7, human CD3 (on Jurkat cells and human T …)", "experiment": "flow cytometry, human CD8 T cells"}, "[8]": {"biological_target": "T8, human BCMA (full-length, on cells)", "experiment": "cell-based or functional assay", "remark": "listed apart in the source"}, "[9]": {"biological_target": "T9, cynomolgus monkey BCMA (full-length, on cells) (cynomolgus monkey, UniProt A0A2K5UD97 1-183)", "T9 construct": "whole, on cells; also called cynoBCMA; GS-CHO-cynoBCMA", "T9 sequence (A0A2K5UD97 entry or part of it)": "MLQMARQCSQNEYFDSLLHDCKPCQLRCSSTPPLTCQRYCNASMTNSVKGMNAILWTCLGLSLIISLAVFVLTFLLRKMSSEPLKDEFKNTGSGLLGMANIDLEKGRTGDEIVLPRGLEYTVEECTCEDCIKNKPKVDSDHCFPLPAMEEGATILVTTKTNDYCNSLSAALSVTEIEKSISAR", "experiment": "flow cytometry, GS-CHO-cynoBCMA cells"}, "[10]": {"biological_target": "T8, human BCMA (full-length, on cells)", "experiment": "flow cytometry, GS-CHO-hBCMA cells"}, "[11]": {"biological_target": "T4, human GPRC5D (full-length, on cells)", "experiment": "cell-based or functional assay", "remark": "listed apart in the source"}, "[12]": {"biological_target": "T4, human GPRC5D (full-length, on cells)", "experiment": "flow cytometry, GS-CHO-hGPRC5D cells"}, "[13]": {"biological_target": "T4, human GPRC5D (full-length, on cells)", "experiment": "cell-based or functional assay", "remark": "listed apart in the source"}, "[14]": {"biological_target": "T8, human BCMA (full-length, on cells)", "experiment": "cell-based or functional assay", "remark": "listed apart in the source"}, "[15]": {"biological_target": "T4, human GPRC5D (full-length, on cells)", "experiment": "cell-based or functional assay", "remark": "listed apart in the source"}}, "note": "Read-outs that look alike come from different tables or passages of the source.", "data": [{"binder": "B3 (24) (hz5E12_sp34.24_497_triFab) (trispecific antibody, human IgG1, kappa, lambda, L234A L235A, also called Exemplary antibody No. 1) heavy 1: not shown light 1: DIVMTQSPDSLAVSLGERATINCRASESVDSYGITFMNWYQQKPGQPPKLLIYAASNQGSGVPDRFSGSGSGTDFTLTISSLQAEDVAVYYCQQSKEVPWTFGQGTKLEIKRTVAAPSVFIFPPSDEQLKSGTASVVCLLNNFYPREAKVQWKVDNALQSGNSQESVTEQDSKDSTYSLSSTLTLSKADYEKHKVYACEVTHQGLSSPVTKSFNRGEC heavy 2: not shown light 2: DIQMTQSPSSLSASVGDRVTITCRASQSISRYLNWYQDKPGKAPKLLIYAASSLQSGVPSRFSGSGSGTDFTLTISSLQPEDFATYYCQQKYFDITFGGGTKVEIKRTVAAPSVFIFPPSDECLKSGTASVVCLLNNFYPREAKVQWKVDNALQSGNSQESVTEQDSKDSTYSLSSTLTLSKADYEKHKVYACEVTHQGLSSPVTKSFNRGES light 3: QAVVTQEPSLTVSPGGTVTLTCRSSTGAVTTSNYANWVQKKPGQAPRGLIGGTNKRAPGVPARFSGSLLGDKAALTLLGAQPEDEAEYYCALWYSNLWVFGQGTKLTVLGQPKAAPSVTLFPPSSEELQANKATLVCLISDFYPGAVTVAWKADSSPVKAGVETTTPSKQSNNKYAASSYLSLTPEQWKSHRSYSCQVTHEGSTVEKTVAPTECS", "values": [{"measurement": "EC50", "setting": "[1]", "value": 256, "unit": "nM"}, {"measurement": "Kd", "setting": "cyno CD3E&G-His/Free", "value": 9.51, "unit": "nM"}, {"measurement": "koff", "setting": "cyno CD3E&G-His/Free", "value": 0.00658, "unit": "s⁻¹"}, {"measurement": "kon", "setting": "cyno CD3E&G-His/Free", "value": 692000, "unit": "M⁻¹ s⁻¹"}, {"measurement": "Kd", "setting": "human CD3E&G-His/Free", "value": 13.3, "unit": "nM"}, {"measurement": "koff", "setting": "human CD3E&G-His/Free", "value": 0.00859, "unit": "s⁻¹"}, {"measurement": "kon", "setting": "human CD3E&G-His/Free", "value": 646000, "unit": "M⁻¹ s⁻¹"}, {"measurement": "EC50 of PBMC killing of H929 ko BCMA cells (LDH)", "setting": "[2]", "value": 0.00698, "unit": "nM"}, {"measurement": "binding result", "setting": "BCMA-R39A (on cells)", "value": "binds"}, {"measurement": "binding result", "setting": "BCMA-R27P (on cells)", "value": "binds"}, {"measurement": "EC50", "setting": "[3]", "value": 34.5, "unit": "nM"}, {"measurement": "EC50 of PBMC killing of H929 ko GPRC5D cells (LDH)", "setting": "[4]", "value": 0.0867, "unit": "nM"}, {"measurement": "EC50", "setting": "[5]", "value": 53.6, "unit": "nM"}, {"measurement": "EC50 of PBMC killing of H929 ko GPRC5D cells (LDH)", "setting": "[6]", "value": 0.017, "unit": "nM"}, {"measurement": "EC50", "setting": "[7]", "value": 54.5, "unit": "nM"}, {"measurement": "EC50 of PBMC killing of H929 ko GPRC5D cells, donor1", "setting": "[8]", "value": 0.0175, "unit": "nM"}, {"measurement": "EC50", "setting": "[9]", "value": 14.2, "unit": "nM"}, {"measurement": "EC50", "setting": "[10]", "value": 11.4, "unit": "nM"}, {"measurement": "EC50 of PBMC killing of H929 ko BCMA cells (LDH)", "setting": "[11]", "value": 0.00149, "unit": "nM"}, {"measurement": "EC50", "setting": "[12]", "value": 80.7, "unit": "nM"}, {"measurement": "EC50 of PBMC killing of H929 ko BCMA cells, donor1", "setting": "[13]", "value": 0.00931, "unit": "nM"}]}, {"binder": "Inno-B (Hel_sp34.24_497_triFab) (trispecific antibody, human IgG1, kappa, lambda, L234A L235A) heavy 1: not shown light 1: not shown heavy 2: not shown light 2: DIQMTQSPSSLSASVGDRVTITCRASQSISRYLNWYQDKPGKAPKLLIYAASSLQSGVPSRFSGSGSGTDFTLTISSLQPEDFATYYCQQKYFDITFGGGTKVEIKRTVAAPSVFIFPPSDECLKSGTASVVCLLNNFYPREAKVQWKVDNALQSGNSQESVTEQDSKDSTYSLSSTLTLSKADYEKHKVYACEVTHQGLSSPVTKSFNRGES light 3: QAVVTQEPSLTVSPGGTVTLTCRSSTGAVTTSNYANWVQKKPGQAPRGLIGGTNKRAPGVPARFSGSLLGDKAALTLLGAQPEDEAEYYCALWYSNLWVFGQGTKLTVLGQPKAAPSVTLFPPSSEELQANKATLVCLISDFYPGAVTVAWKADSSPVKAGVETTTPSKQSNNKYAASSYLSLTPEQWKSHRSYSCQVTHEGSTVEKTVAPTECS", "values": [{"measurement": "EC50 of PBMC killing of L363 cells", "setting": "[14]", "value": 0.192, "unit": "nM"}]}, {"binder": "Inno-G-7F5.3 (trispecific antibody, human IgG1, kappa, lambda, L234A L235A) heavy 1: not shown light 1: not shown heavy 2: not shown light 2: DIQMTQSPSSLSASVGDRVTITCRASQSISSYLNWYQDKPGKAPKLLIYAASSLQSGVPSRFSGSGSGTDFTLTISSLQPEDFATYYCQQADLPAFAFGGGTKVEIKRTVAAPSVFIFPPSDECLKSGTASVVCLLNNFYPREAKVQWKVDNALQSGNSQESVTEQDSKDSTYSLSSTLTLSKADYEKHKVYACEVTHQGLSSPVTKSFNRGES light 3: QAVVTQEPSLTVSPGGTVTLTCRSSTGAVTTSNYANWVQKKPGQAPRGLIGGTNKRAPGVPARFSGSLLGDKAALTLLGAQPEDEAEYYCALWYSNLWVFGQGTKLTVLGQPKAAPSVTLFPPSSEELQANKATLVCLISDFYPGAVTVAWKADSSPVKAGVETTTPSKQSNNKYAASSYLSLTPEQWKSHRSYSCQVTHEGSTVEKTVAPTECS", "values": [{"measurement": "EC50 of PBMC killing of L363 cells", "setting": "[15]", "value": 1.07, "unit": "nM"}]}]}
